“Also recorded” adds a separate entry of the source.
B1: 17-kDa Full Length: recombinant full-length 17-kDa (virB5) protein of Bartonella henselae strain Houston-1, aa 1-148; biotinylated in the IgM assay (protein, listed as Bartonella henselae)
chain: MKKYSLVTLLSLFCISHAKAQTATLTDEYYKKALENTQKLDVAKSQTAESIYESATQTANKIKDINNQLANLKADTKTKPEQLQALQIELTLLQAQLQADTLKIQSLAMIQAKDTKTKEELREEQTQKKHEDLQKQLKEKLEKSDVQL
modifications: biotinylated in IgM assay
notes: recombinant full-length 17-kDa (virB5) protein of Bartonella henselae strain Houston-1, aa 1-148; biotinylated in the IgM assay
B2: 17-kDa Fragment 3: His-tagged recombinant fragment of 17-kDa protein, aa 77-148, glutamine instead of arginine at position 147 (protein, listed as Bartonella henselae)
chain: KTKPEQLQALQIELTLLQAQLQADTLKIQSLAMIQAKDTKTKEELREEQTQKKHEDLQKQLKEKLEKSDVQL
modifications: His tag

How the values were obtained:
[1] = test system: IgM in IFA-positive patient sera; assay: IgM Capture ELISA with biotinylated recombinant 17-kDa full-length protein; type: binding, human; set-up: AUC (ROC analysis of the calibrated slopes): unit not given beside the values; conditions: IFA-positive (n=13) and IFA-negative (n=34) patient samples
Method: For the IgM Capture assay, purified recombinant 17-kDa full-length protein (1 mg/ml) was biotinylated using the Sulfo-NHS Biotin kit (Pierce, Rockford Ill.). MaxiSorp 96 well plates (Nunc, Rochester N.Y.) were coated with anti-human IgM (KPL, Gaithersburg, Md.) at a concentration of 1 μg/ml in coating buffer (0.015 M Na2CO3, 0.035 M NaHCO3 [pH 9.6]) and incubated overnight at 4° C. The plates were washed with PBS-Tween 20 and blocked with 1% bovine serum albumin (BSA) at room temperature. IgM positive and negative patient sera were used. The sera were diluted 1:100 in 1% BSA with 0.05% Tween 20, prior to being run in duplicate, and reacted with the plates for 1 hr at room temperature.
Biotinylated recombinant 17-kDa protein was added to the plates at 1 μg/ml in dilution buffer and incubated at room temperature for 1 h with shaking. Streptavidin-HRP (Southern Biotech, Birmingham Ala.) was used to detect the plates followed by development with 3,3′,5,5′-Tetramethylbenzidine (TMB) (Moss, Pasadena, Md.) for 30 minutes. The reaction was stopped with 2M HCl and the absorbance at 450 nm was recorded after a period of 5-30 minutes.
Receiver operating characteristic (ROC) curve analysis was used to evaluate the performance of the IgM Capture method. ROC plots can be used to compare all tests, even when tests have quite different cutoff values. The study of area under the curve (AUC), which evaluates the probabilities of (1-Specificity) and Sensitivity, is an important statistical feature of such curves (i.e., for samples with Sensitivity=Specificity=100%, AUC would be 1.0).

[2] = test system: antibodies against Bartonella henselae in IFA sero-positive patient sera (IgG); assay: IgG ELISA with recombinant 17-kDa protein or Fragment 3 as coating antigen; type: binding, human; conditions: for area under ROC curve (AUC): IgG ELISA, panel of 47 serum samples (27 IFA positive, 20 IFA negative), MedCalc ROC; for reaction with IFA negative serum samples: panel of 12 IFA positive and 6 IFA negative serum samples
Method: In the ELISA assay, purified Fragment 3 protein was diluted in coating buffer to a final concentration of 250 ng/ml. Antigen was adhered to 96-well plate by applying 100 μl this solution per well and incubated at 4° C. for 18 hours. Uncoated antigen was removed by washing the plate three times with PBST wash buffer. After washing, post-coating was done with 300 μl blocking reagent General Blocker BB1 in each well for 1 hour at 22° C. Primary polyclonal antibody from 100 μl serum in 1:100 sample dilution buffer each well was allowed to react with coated antigen for 1 hour at 22° C. After five wash steps with PBST wash buffer, each well was incubated with […] peroxidase conjugated goat anti-human IgG (KPL, 1:20,000 from 1 mg/ml stock in sample dilute buffer) for 30 minutes at 22° C. The excess amount of secondary antibody was also removed by five wash steps with PBST wash buffer. The reaction were visualized by adding 100 μl substrate 3,3′5,5′-Tetramethylbenzidine solution and incubated at 22° C. for 15 minutes. The reaction was terminated by adding 100 μl 0.5 M H2SO4 per well before taking OD450nm measurement. Receiver operating characteristic curve (ROC) analysis was calculated with associated 95% confidence interval using a binomial distribution with the MedCalc program.
In this series of studies, a panel containing 12 IFA positive serum samples and 6 IFA negative serum samples was evaluated by ELISA using the respective antigen as the coating antigen. FIG. 15 presents the results of this ELISA analysis. […] Neither antigen bound antibody in sample #3508.
To further characterize the comparative abilities of recombinant Fragment 3 and the full length protein to bind antibodies to Bartonella henselae, a broader panel of 47 serum samples (27 IFA positive serum samples and 20 IFA negative serum samples) was analyzed by ELISA. The raw data was analyzed with ROC curve comparison in statistic software MedCalc.
A panel of 47 human sera was used in an IgG ELISA to evaluate the sensitivity and specificity for Fragment 3 mutants. The raw data was analyzed by interactive dot diagram assay (FIGS. 31 and 32).
Purified protein was diluted in coating buffer to a final concentration 250 ng/ml. Antigen was adhered to 96-well plate by applying 100 μl above prepared solution per well and incubate at 4° C. for 18 hours. We removed uncoated antigen by washing plate three times with PBST wash buffer. After washing, post-coating was done with 300 μl blocking reagent General Blocker BB1 each well for 1 hour at 22° C. Then primary polyclonal antibody from 100 μl serum in 1:100 sample dilution buffer each well was allowed to react with coated antigen for 1 hour at 22° C. After five times washing with PBST wash buffer, we incubated each well with 100 μl peroxidase conjugated goat anti-human IgG (KPL, 1:20,000 from 1 mg/ml stock in sample dilute buffer) for 30 minutes at 22° C. The excess amount of secondary antibody was also removed by five times washing with PBST wash buffer. The reaction were visualized by adding 100 μl substrate 3,3′5,5′-Tetramethylbenzidine Solution and incubated at 22° C. for 15 minutes. In the end, we terminated reaction with 100 μl 0.5 M H2SO4 per well before taking OD450nm measurement. Receiver operating characteristic curve (ROC) analysis was calculated with associated 95% confidence interval using a binomial distribution with MedCalc program.

| Molecule | AUC (ROC analysis of the calibrated slopes) [1] | sensitivity [1] [%] | specificity [1] [%] | area under ROC curve (AUC) [2] | reaction with IFA negative serum samples [2] | ability to bind antibodies in IgG ELISA ([2]; coating antigen, IFA positive vs IFA negative sera) |
| --- | --- | --- | --- | --- | --- | --- |
| B1 | 0.998 | 100 | 97.1 | 0.853 | Neither antigen reacted with any of the IFA negative serum samples |  |
| B2 |  |  |  | 0.897 | Neither antigen reacted with any of the IFA negative serum samples | binds to antibodies against Bartonella henselae; also recorded: identical, if not better, ability to bind antibodies when compared with the full-length 17-kDa protein; also recorded: better sensitivity in detecting positive serum than the full length antigen |

From patent publication US8283439B2, “Recombinant fragments and synthetic peptides of 17-kDa polypeptide useful in detecting Bartonella henselae” (Medical Diagnostic Laboratories L.L.C., priority 2008, dated 2012)
